From patent US20240000899A1, “THERAPEUTIC USEFUL AGAINST ANTIMICROBIAL RESISTANT AGENTS” (priority 2022, published 2024) come the findings set out here.

The assay concerns Staphylococcus aureus ATCC 6538. The assay can be described thus: Modified ASTM E2315 test of low pH therapeutic with AMPs, acid neutralized after one minute. The assay is classed as cell-based. The source says:
Since the reaction speed of the two different MOAs are different, a modified test protocol was developed, which is summarized below. • a. […] Heretofore, it has been believed that AMPs are unstable in low pH environments. Mixture of dry powder immediately prior to use is believed to address concerns regarding minimization of in vitro stability. • b. The prepared AMP solution was then mixed with the bacteria containing media. After one minute the acid solution was neutralized. This simulates the short antimicrobial period for the elevated proton concentration in vivo. The bacteria population was measured to determine efficacy after one minute. • c. The AMPs retained in the solution are not expected to stop their antimicrobial activity after acid neutralization, so a second bacteria population measurement was made after 24 hours. [table]

Entries after “also recorded” stand apart in the source; their conditions may differ.

B1: lactoferrin (protein, UniProt P02788 20-710, looked up)
Lactotransferrin: GRRRSVQWCAVSQPEATKCFQWQRNMRKVRGPPVSCIKRDSPIQCIQAIAENRADAVTLDGGFIYEAGLAPYKLRPVAAEVYGTERQPRTHYYAVAVVKKGGSFQLNELQGLKSCHTGLRRTAGWNVPIGTLRPFLNWTGPPEPIEAAVARFFSASCVPGADKGQFPNLCRLCAGTGENKCAFSSQEPYFSYSGAFKCLRDGAGDVAFIRESTVFEDLSDEAERDEYELLCPDNTRKPVDKFKDCHLARVPSHAVVARSVNGKEDAIWNLLRQAQEKFGKDKSPKFQLFGSPSGQKDLLFKDSAIGFSRVPPRIDSGLYLGSGYFTAIQNLRKSEEEVAARRARVVWCAVGEQELRKCNQWSGLSEGSVTCSSASTTEDCIALVLKGEADAMSLDGGYVYTAGKCGLVPVLAENYKSQQSSDPDPNCVDRPVEGYLAVAVVRRSDTSLTWNSVKGKKSCHTAVDRTAGWNIPMGLLFNQTGSCKFDEYFSQSCAPGSDPRSNLCALCIGDEQGENKCVPNSNERYYGYTGAFRCLAENAGDVAFVKDVTVLQNTDGNNNEAWAKDLKLADFALLCLDGKRKPVTEARSCHLAMAPNHAVVSRMDKVERLKQVLLHQQAKFGRNGSDCPDKFCLFQSETKNLLFNDNTECLARLHGKTTYEKYLGPQYVAGITNLKKCSTSPLLEACEFLRK
Regarding B1, the “1-min Efficacy (log)” value (bacteria population after one minute, then acid neutralized, no soiling, single-replicant) was found to be 0.05 log. For the same molecule, the “Efficacy on S. aureus, conclusion in words” value (comparison of Table 3 examples) is “minimal efficacy; also recorded: not effective”. Moreover, the “24-hour Efficacy (log)” value (second bacteria population measurement after 24 hours, acid neutralized after one minute) worked out at 0.16 log.
